According to publication PMC9482650, “Quantitative fragmentomics allow affinity mapping of interactomes” (Nature Communications, 2022):
Residue numbers refer to the chain shown, from its start.

T1: TX1BP3, O14907
T1 sequence (O14907 10-122, limits assumed, looked up): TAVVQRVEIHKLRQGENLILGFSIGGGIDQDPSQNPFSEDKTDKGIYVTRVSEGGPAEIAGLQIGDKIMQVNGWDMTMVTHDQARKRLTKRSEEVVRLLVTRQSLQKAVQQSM

T2: DLG3_2, Q92796
T2 sequence (Q92796 221-321, limits assumed, looked up): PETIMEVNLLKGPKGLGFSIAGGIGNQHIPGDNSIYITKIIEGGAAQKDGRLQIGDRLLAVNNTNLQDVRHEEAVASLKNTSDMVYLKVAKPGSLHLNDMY

T3: APBA2_2, Q99767
T3 sequence (Q99767 654-744, limits assumed, looked up): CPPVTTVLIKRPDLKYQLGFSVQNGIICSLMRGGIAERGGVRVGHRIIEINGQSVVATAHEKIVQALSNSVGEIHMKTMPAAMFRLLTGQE

T4: DLG3_1, Q92796
T4 sequence (Q92796 125-227, limits assumed, looked up): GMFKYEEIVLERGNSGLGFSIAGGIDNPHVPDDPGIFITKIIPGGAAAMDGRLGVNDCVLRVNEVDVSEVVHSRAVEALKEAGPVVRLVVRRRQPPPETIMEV

T5: RAPGEF6, Q8TEU7
T5 sequence (Q8TEU7 525-625, limits assumed, looked up): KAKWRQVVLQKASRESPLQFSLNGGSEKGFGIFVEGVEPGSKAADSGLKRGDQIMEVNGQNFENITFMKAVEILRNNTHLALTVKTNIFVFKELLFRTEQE

T6: APBA2_1, Q99767
T6 sequence (Q99767 563-664, limits assumed, looked up): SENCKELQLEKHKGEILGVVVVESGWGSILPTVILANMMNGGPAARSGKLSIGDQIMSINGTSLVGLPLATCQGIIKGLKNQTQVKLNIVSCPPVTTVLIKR

T7: PCLO, Q9Y6V0
T7 sequence (Q9Y6V0 4491-4600, limits assumed, looked up): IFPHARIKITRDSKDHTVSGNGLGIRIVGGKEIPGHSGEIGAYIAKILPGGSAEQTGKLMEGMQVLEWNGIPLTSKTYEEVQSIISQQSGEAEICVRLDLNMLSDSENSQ

T8: SNTG2, Q9NY99
T8 sequence (Q9NY99 68-166, limits assumed, looked up): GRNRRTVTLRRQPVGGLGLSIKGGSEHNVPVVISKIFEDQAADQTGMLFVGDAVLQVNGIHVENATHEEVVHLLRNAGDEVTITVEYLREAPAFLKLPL

T9: APBA1_1, Q02410
T9 sequence (Q02410 651-752, limits assumed, looked up): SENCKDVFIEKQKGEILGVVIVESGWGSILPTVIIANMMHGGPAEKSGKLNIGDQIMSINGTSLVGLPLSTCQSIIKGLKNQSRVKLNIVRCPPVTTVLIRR

T10: LIN7A, O14910
T10 sequence (O14910 103-200, limits assumed, looked up): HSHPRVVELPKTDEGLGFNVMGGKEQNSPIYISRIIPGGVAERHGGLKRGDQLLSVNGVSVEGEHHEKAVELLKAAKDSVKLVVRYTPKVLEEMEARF

T11: LIN7C, Q9NUP9
T11 sequence (Q9NUP9 88-185, limits assumed, looked up): T10 sequence (O14910 103-200, limits assumed, looked up) with D13E, V20I, V40I, E42D, K77Q, D78G, S79K, A96S

T12: PARD3B_1, Q8TEW8
T12 sequence (Q8TEW8 196-299, limits assumed, looked up): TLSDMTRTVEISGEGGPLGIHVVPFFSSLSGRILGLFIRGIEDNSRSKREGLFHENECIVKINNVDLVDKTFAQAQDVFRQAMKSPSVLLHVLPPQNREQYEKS


These binders were tested against LIMK2, P53671 (assay: holdup assay). Settings: plain residues with an end cap or a label only (N-terminal biotin on a linker: ado-ado).
Chain of LIMK2, P53671 (P53671 143-248): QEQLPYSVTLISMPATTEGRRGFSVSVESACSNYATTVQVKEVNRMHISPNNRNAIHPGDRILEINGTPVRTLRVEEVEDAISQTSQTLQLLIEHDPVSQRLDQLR
Design: key: below the threshold = too weak to quantify, mostly under pKd 3.1 to 4

Row | Binder | pKd
1 | FLVTEFNVML [DFNB31, Q9P202] | below the threshold

Each binder was assayed against MAGI2_6, Q86UL8 (assay: holdup assay). Settings: plain residues with an end cap or a label only (N-terminal biotin on a linker: ado-ado).
Chain of MAGI2_6, Q86UL8 (Q86UL8 1141-1229): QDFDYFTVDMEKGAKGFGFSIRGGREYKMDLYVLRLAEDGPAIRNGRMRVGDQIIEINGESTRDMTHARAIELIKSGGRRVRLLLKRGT
Design: key: below the threshold = too weak to quantify, mostly under pKd 3.1 to 4

Row | Binder | pKd
2 | FLVTEFNVML [DFNB31, Q9P202] | 4.78

Each binder was assayed against FRMPD3, Q5JV73 (assay: holdup assay). Settings: plain residues with an end cap or a label only (N-terminal biotin on a linker: ado-ado).
Chain of FRMPD3, Q5JV73 (Q5JV73 12-100): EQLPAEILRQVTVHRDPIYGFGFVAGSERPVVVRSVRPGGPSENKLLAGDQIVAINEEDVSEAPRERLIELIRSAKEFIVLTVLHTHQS
Design: key: below the threshold = too weak to quantify, mostly under pKd 3.1 to 4

Row | Binder | pKd
3 | FLVTEFNVML [DFNB31, Q9P202] | 3.97

These binders were tested against T1, TX1BP3, O14907 (assay: holdup assay). Settings: plain residues with an end cap or a label only (N-terminal biotin on a linker: ado-ado).
Design: key: below the threshold = too weak to quantify, mostly under pKd 3.1 to 4

Row | Binder | pKd
4 | FLVTEFNVML [DFNB31, Q9P202] | 3.96

Each binder was assayed against T2, DLG3_2, Q92796 (assay: holdup assay). Settings: plain residues with an end cap or a label only (N-terminal biotin on a linker: ado-ado).
Design: key: below the threshold = too weak to quantify, mostly under pKd 3.1 to 4

Row | Binder | pKd
5 | FLVTEFNVML [DFNB31, Q9P202] | below the threshold

These binders were tested against Inadl_10, Q8NI35 (assay: holdup assay). Settings: plain residues with an end cap or a label only (N-terminal biotin on a linker: ado-ado).
Chain of Inadl_10, Q8NI35 (Q8NI35 1673-1763): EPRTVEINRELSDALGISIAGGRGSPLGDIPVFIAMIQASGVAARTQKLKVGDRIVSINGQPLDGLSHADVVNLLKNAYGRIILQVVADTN
Design: key: below the threshold = too weak to quantify, mostly under pKd 3.1 to 4

Row | Binder | pKd
6 | FLVTEFNVML [DFNB31, Q9P202] | below the threshold

The binders below were run against T3, APBA2_2, Q99767 (assay: holdup assay). Settings: plain residues with an end cap or a label only (N-terminal biotin on a linker: ado-ado).
Design: key: below the threshold = too weak to quantify, mostly under pKd 3.1 to 4

Row | Binder | pKd
7 | FLVTEFNVML [DFNB31, Q9P202] | below the threshold

What follows are binders tested against T4, DLG3_1, Q92796 (assay: holdup assay). Settings: plain residues with an end cap or a label only (N-terminal biotin on a linker: ado-ado).
Design: key: below the threshold = too weak to quantify, mostly under pKd 3.1 to 4

Row | Binder | pKd
8 | FLVTEFNVML [DFNB31, Q9P202] | below the threshold

What follows are binders tested against Inadl_9, Q8NI35 (assay: holdup assay). Settings: plain residues with an end cap or a label only (N-terminal biotin on a linker: ado-ado).
Chain of Inadl_9, Q8NI35 (Q8NI35 1530-1615): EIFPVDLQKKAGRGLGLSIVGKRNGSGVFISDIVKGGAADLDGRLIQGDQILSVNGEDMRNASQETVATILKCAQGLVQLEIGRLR
Design: key: below the threshold = too weak to quantify, mostly under pKd 3.1 to 4

Row | Binder | pKd
9 | FLVTEFNVML [DFNB31, Q9P202] | below the threshold

These binders were tested against ARHGEF12, Q9NZN5-2 (assay: holdup assay). Settings: plain residues with an end cap or a label only (N-terminal biotin on a linker: ado-ado).
Chain of ARHGEF12, Q9NZN5-2 (Q9NZN5 other isoform, or with tags, fused parts or gaps): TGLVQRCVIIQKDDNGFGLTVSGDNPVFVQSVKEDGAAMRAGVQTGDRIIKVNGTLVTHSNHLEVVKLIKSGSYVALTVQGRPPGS
Design: key: below the threshold = too weak to quantify, mostly under pKd 3.1 to 4

Row | Binder | pKd
10 | FLVTEFNVML [DFNB31, Q9P202] | below the threshold

Each binder was assayed against HTRA2, O43464 (assay: holdup assay). Settings: plain residues with an end cap or a label only (N-terminal biotin on a linker: ado-ado).
Chain of HTRA2, O43464 (O43464 355-458): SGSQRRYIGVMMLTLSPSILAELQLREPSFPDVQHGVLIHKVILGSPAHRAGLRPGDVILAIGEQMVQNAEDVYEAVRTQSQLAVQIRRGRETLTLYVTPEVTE
Design: key: below the threshold = too weak to quantify, mostly under pKd 3.1 to 4

Row | Binder | pKd
11 | FLVTEFNVML [DFNB31, Q9P202] | below the threshold

What follows are binders tested against T5, RAPGEF6, Q8TEU7 (assay: holdup assay). Settings: plain residues with an end cap or a label only (N-terminal biotin on a linker: ado-ado).
Design: key: below the threshold = too weak to quantify, mostly under pKd 3.1 to 4

Row | Binder | pKd
12 | FLVTEFNVML [DFNB31, Q9P202] | below the threshold

The binders below were run against MAGI3_2, Q5TCQ9 (assay: holdup assay). Settings: plain residues with an end cap or a label only (N-terminal biotin on a linker: ado-ado).
Chain of MAGI3_2, Q5TCQ9 (Q5TCQ9 398-503): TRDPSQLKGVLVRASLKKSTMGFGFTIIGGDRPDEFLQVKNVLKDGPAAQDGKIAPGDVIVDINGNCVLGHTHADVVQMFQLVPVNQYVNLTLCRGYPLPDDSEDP
Design: key: below the threshold = too weak to quantify, mostly under pKd 3.1 to 4

Row | Binder | pKd
13 | FLVTEFNVML [DFNB31, Q9P202] | 3.66

What follows are binders tested against LNX1_1, Q8TBB1 (assay: holdup assay). Settings: plain residues with an end cap or a label only (N-terminal biotin on a linker: ado-ado).
Chain of LNX1_1, Q8TBB1 (Q8TBB1 261-371): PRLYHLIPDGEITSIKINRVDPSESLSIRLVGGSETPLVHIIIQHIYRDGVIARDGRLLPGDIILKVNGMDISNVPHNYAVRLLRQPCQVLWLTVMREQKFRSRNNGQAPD
Design: key: below the threshold = too weak to quantify, mostly under pKd 3.1 to 4

Row | Binder | pKd
14 | FLVTEFNVML [DFNB31, Q9P202] | below the threshold

These binders were tested against T6, APBA2_1, Q99767 (assay: holdup assay). Settings: plain residues with an end cap or a label only (N-terminal biotin on a linker: ado-ado).
Design: key: below the threshold = too weak to quantify, mostly under pKd 3.1 to 4

Row | Binder | pKd
15 | FLVTEFNVML [DFNB31, Q9P202] | below the threshold

These binders were tested against T7, PCLO, Q9Y6V0 (assay: holdup assay). Settings: plain residues with an end cap or a label only (N-terminal biotin on a linker: ado-ado).
Design: key: below the threshold = too weak to quantify, mostly under pKd 3.1 to 4

Row | Binder | pKd
16 | FLVTEFNVML [DFNB31, Q9P202] | below the threshold

Each binder was assayed against GRIP2_7, Q9C0E4 (assay: holdup assay). Settings: plain residues with an end cap or a label only (N-terminal biotin on a linker: ado-ado).
Chain of GRIP2_7, Q9C0E4 (Q9C0E4 934-1023): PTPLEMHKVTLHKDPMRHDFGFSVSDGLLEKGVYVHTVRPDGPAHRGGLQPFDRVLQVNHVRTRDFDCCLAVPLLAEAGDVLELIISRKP
Design: key: below the threshold = too weak to quantify, mostly under pKd 3.1 to 4

Row | Binder | pKd
17 | FLVTEFNVML [DFNB31, Q9P202] | below the threshold

These binders were tested against LNX1_2, Q8TBB1 (assay: holdup assay). Settings: plain residues with an end cap or a label only (N-terminal biotin on a linker: ado-ado).
Chain of LNX1_2, Q8TBB1 (Q8TBB1 371-470): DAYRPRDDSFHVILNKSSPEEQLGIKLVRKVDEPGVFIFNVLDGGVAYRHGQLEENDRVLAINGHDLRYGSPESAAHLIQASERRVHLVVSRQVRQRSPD
Design: key: below the threshold = too weak to quantify, mostly under pKd 3.1 to 4

Row | Binder | pKd
18 | FLVTEFNVML [DFNB31, Q9P202] | below the threshold

These binders were tested against T8, SNTG2, Q9NY99 (assay: holdup assay). Settings: plain residues with an end cap or a label only (N-terminal biotin on a linker: ado-ado).
Design: key: below the threshold = too weak to quantify, mostly under pKd 3.1 to 4

Row | Binder | pKd
19 | FLVTEFNVML [DFNB31, Q9P202] | below the threshold

These binders were tested against T9, APBA1_1, Q02410 (assay: holdup assay). Settings: plain residues with an end cap or a label only (N-terminal biotin on a linker: ado-ado).
Design: key: below the threshold = too weak to quantify, mostly under pKd 3.1 to 4

Row | Binder | pKd
20 | FLVTEFNVML [DFNB31, Q9P202] | below the threshold

Each binder was assayed against GRASP, Q7Z6J2 (assay: holdup assay). Settings: plain residues with an end cap or a label only (N-terminal biotin on a linker: ado-ado).
Chain of GRASP, Q7Z6J2 (Q7Z6J2 96-193): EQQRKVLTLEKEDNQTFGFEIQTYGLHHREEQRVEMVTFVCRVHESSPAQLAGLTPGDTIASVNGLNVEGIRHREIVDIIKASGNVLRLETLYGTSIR
Design: key: below the threshold = too weak to quantify, mostly under pKd 3.1 to 4

Row | Binder | pKd
21 | FLVTEFNVML [DFNB31, Q9P202] | 3.72

The binders below were run against T10, LIN7A, O14910 (assay: holdup assay). Settings: plain residues with an end cap or a label only (N-terminal biotin on a linker: ado-ado).
Design: key: below the threshold = too weak to quantify, mostly under pKd 3.1 to 4

Row | Binder | pKd
22 | FLVTEFNVML [DFNB31, Q9P202] | below the threshold

Each binder was assayed against T11, LIN7C, Q9NUP9 (assay: holdup assay). Settings: plain residues with an end cap or a label only (N-terminal biotin on a linker: ado-ado).
Design: key: below the threshold = too weak to quantify, mostly under pKd 3.1 to 4

Row | Binder | pKd
23 | FLVTEFNVML [DFNB31, Q9P202] | below the threshold

What follows are binders tested against T12, PARD3B_1, Q8TEW8 (assay: holdup assay). Settings: plain residues with an end cap or a label only (N-terminal biotin on a linker: ado-ado).
Design: key: below the threshold = too weak to quantify, mostly under pKd 3.1 to 4

Row | Binder | pKd
24 | FLVTEFNVML [DFNB31, Q9P202] | 5.21

The binders below were run against DLG1_3, Q12959 (assay: holdup assay). Settings: plain residues with an end cap or a label only (N-terminal biotin on a linker: ado-ado).
Chain of DLG1_3, Q12959 (Q12959 457-571): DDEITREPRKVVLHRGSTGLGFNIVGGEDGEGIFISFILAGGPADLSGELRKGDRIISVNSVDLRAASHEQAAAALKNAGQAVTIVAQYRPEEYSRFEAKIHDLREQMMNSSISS
Design: key: below the threshold = too weak to quantify, mostly under pKd 3.1 to 4

Row | Binder | pKd
25 | FLVTEFNVML [DFNB31, Q9P202] | below the threshold
